Data taken from patent US11028377B2, “Phytase variants YkAPPA having improved pepsin resistance and increased catalytic efficiency” (priority 2017, dated 2021).

What was measured:
[1] = tested on: O=P(O)(O)O[C@H]1[C@H](OP(=O)(O)O)[C@@H](OP(=O)(O)O)[C@H](OP(=O)(O)O)[C@@H](OP(=O)(O)O)[C@H]1OP(=O)(O)O; experiment: Kinetic parameters of phytase variant with sodium phytate (double reciprocal method); format: biochemical, Y. kristensenii; settings: other: E230R, optimal pH 4.0 and temperature 55° C.
Description: According to embodiment of the present invention, the phytase variant YkAPPA-E230R with amino acid sequence as set forth in SEQ ID NO.11 is obtained by mutation at the 230th site of […] for phytase with amino acid as set forth in SEQ ID.
(§1) Gene encoding phytase YkAPPA having the nucleotide sequence as set in SEQ ID NO. 2 from Y. kristensenii was performed with site-directed mutagenesis by Overlap PCR to obtain genes encodng the phytase variants YeAPPA-L162G, YeAPPA-L162A, YeAPPA-E230G, YkAPPA-E230A, YkAPPA-E230S, YkAPPA-E230T, YkAPPA-E230D, YkAPPA-E230P, and YkAPPA-E230R, respectively.
(§2) The modified genes encoding the phytase variants were inserted into expression vector pET-22b (+), and transformed into E coli. Strain BL21 (DE3), which were induced by IPTG in 1 mM, cultivated for 5 h at 24° C. to express the phytase, followed by being purified by columns Ni-NTA and DEAE to obtain the mutant protein with the same molecular weight as that of the wild.
(§3) The effect of pepsin on the activity of the purified mutant phytase was determined by detecting the remaining activity after being treated in pH 2 for 2 hours with the different concentrations of pepsin in a mass ratio to phytase ranging from 1/1000 to 1/1. The activity of phytase was detected by ferric molybdenum sulfate blue method by adding 50 ul of phytase solution to 950 ul of sodium phytate substrate in 1.5 mmol/L to react for 30 min at 37° C., followed by adding 1 mL of 10% (m/v) TCA to stop the reaction, and 2 mL of developing color reagent. After developing, OD is measured at 700 nm to calculate the phytase activity.
(§4) The activity of phytase was measured with sodium phytate as substrate in different concentrations of 0.0625 mmol/L, 0.1 mmol/L, 0.125 mmol/L, 0.2 mmol/L, 0.25 mmol/L, 0.5 mmol/L, 1.0 mmol/L and 1.5 mmol/L at the optimal temperature and pH, followed by calculating the values of km and Vmax by double reciprocal method for Michaelis equation, and Kcat according to the theoretical molecular weight. […] And, the catalytic properties including reaction rate, turnover rate and catalytic efficiency of the other phytase variants were similar to those of the wild phytase.

[2] = tested on: O=P(O)(O)O[C@H]1[C@H](OP(=O)(O)O)[C@@H](OP(=O)(O)O)[C@H](OP(=O)(O)O)[C@@H](OP(=O)(O)O)[C@H]1OP(=O)(O)O; experiment: as above; format: biochemical, Y. kristensenii; settings: other: E230S, optimal pH 4.5 and temperature 55° C.
Description: According to embodiment of the present invention, the phytase variant YkAPPA-E230S with amino acid sequence as set forth in SEQ ID NO.7 is obtained by mutation at the 230th site of glutamic acid into serine for phytase with amino acid as set forth in SEQ ID NO.1.
as §1, §2, §3, §4

[3] = tested on: O=P(O)(O)O[C@H]1[C@H](OP(=O)(O)O)[C@@H](OP(=O)(O)O)[C@H](OP(=O)(O)O)[C@@H](OP(=O)(O)O)[C@H]1OP(=O)(O)O; experiment: as above; format: biochemical, Y. kristensenii; settings: other: E230T, optimal pH 4.5 and temperature 55° C.
Description: According to embodiment of the present invention, the phytase variant YkAPPA-E230T with amino acid sequence as set forth in SEQ ID NO.8 is obtained by mutation at the 230th site of glutamic acid into threonine for phytase with amino acid as set forth in SEQ ID NO.1.
as §1, §2, §3, §4

[4] = tested on: O=P(O)(O)O[C@H]1[C@H](OP(=O)(O)O)[C@@H](OP(=O)(O)O)[C@H](OP(=O)(O)O)[C@@H](OP(=O)(O)O)[C@H]1OP(=O)(O)O; experiment: as above; format: biochemical, Y. kristensenii; settings: other: E230G, optimal pH 4.5 and temperature 55° C.
Description: (§5) According to embodiment of the present invention, the phytase variant YkAPPA-E230G with amino acid sequence as set forth in SEQ ID NO.5 is obtained by mutation at the 230th site of glutamic acid into glycine for phytase with amino acid as set forth in SEQ ID NO.1.
as §1, §2, §3, §4

[5] = tested on: O=P(O)(O)O[C@H]1[C@H](OP(=O)(O)O)[C@@H](OP(=O)(O)O)[C@H](OP(=O)(O)O)[C@@H](OP(=O)(O)O)[C@H]1OP(=O)(O)O; experiment: as above; format: biochemical, Y. kristensenii; settings: other: E230A, optimal pH 4.5 and temperature 55° C.
Description: (§6) According to embodiment of the present invention, the phytase variant YkAPPA-E230A with amino acid sequence as set forth in SEQ ID NO.6 is obtained by mutation at the 230th site of glutamic acid into alanine for phytase with amino acid as set forth in SEQ ID NO.1.
as §1, §2, §3, §4

[6] = tested on: O=P(O)(O)O[C@H]1[C@H](OP(=O)(O)O)[C@@H](OP(=O)(O)O)[C@H](OP(=O)(O)O)[C@@H](OP(=O)(O)O)[C@H]1OP(=O)(O)O; experiment: as above; format: biochemical, Y. kristensenii; settings: other: E230D, optimal pH 4.5 and temperature 55° C.
Description: According to embodiment of the present invention, the phytase variant YkAPPA-E230D with amino acid sequence as set forth in SEQ ID NO.9 is obtained by mutation at the 230th site of glutamic acid into aspartic acid for phytase with amino acid as set forth in SEQ ID NO.1.
as §1, §2, §3, §4

[7] = tested on: O=P(O)(O)O[C@H]1[C@H](OP(=O)(O)O)[C@@H](OP(=O)(O)O)[C@H](OP(=O)(O)O)[C@@H](OP(=O)(O)O)[C@H]1OP(=O)(O)O; experiment: Kinetic parameters of phytase with sodium phytate (double reciprocal method); format: biochemical, Y. kristensenii; settings: other: wild type, optimal pH 4.5 and temperature 55° C.
Description: as §1, §2, §3, §4

[8] = tested on: O=P(O)(O)O[C@H]1[C@H](OP(=O)(O)O)[C@@H](OP(=O)(O)O)[C@H](OP(=O)(O)O)[C@@H](OP(=O)(O)O)[C@H]1OP(=O)(O)O; experiment: Kinetic parameters of phytase variant with sodium phytate (double reciprocal method); format: biochemical, Y. kristensenii; settings: other: E230P, optimal pH 4.5 and temperature 60° C.
Description: According to embodiment of the present invention, the phytase variant YkAPPA-E230P with amino acid sequence as set forth in SEQ ID NO.10 is obtained by mutation at the 230th site of glutamic acid into proline for phytase with amino acid as set forth in SEQ ID NO.1.
as §1, §2, §3, §4

[9] = tested on: O=P(O)(O)O[C@H]1[C@H](OP(=O)(O)O)[C@@H](OP(=O)(O)O)[C@H](OP(=O)(O)O)[C@@H](OP(=O)(O)O)[C@H]1OP(=O)(O)O; experiment: as above; format: biochemical, Y. kristensenii; settings: other: L162G, optimal pH 4.5 and temperature 55° C.
Description: (§7) According to embodiment of the present invention, the phytase variant YkAPPA-L162G with amino acid sequence as set forth in SEQ ID NO.3 is obtained by mutation at the 162th site of Leucine into glycine for phytase with amino acid as set forth in SEQ ID NO.1.
as §1, §2, §3, §4

[10] = tested on: Y. kristensenii phytase YkAPPA variant YkAPPA-L162G, SEQ ID NO.3; experiment: as above; format: biochemical; settings: L162G vs wild phytase
Description: as §7, §1, §2, §3, §4

[11] = tested on: Y. kristensenii phytase YkAPPA variant YkAPPA-E230A, SEQ ID NO.6; experiment: as above; format: biochemical; settings: E230A vs wild phytase
Description: as §6, §1, §2, §3, §4

[12] = tested on: Y. kristensenii phytase YkAPPA variant YkAPPA-E230G, SEQ ID NO.5; experiment: as above; format: biochemical; settings: E230G vs wild phytase
Description: as §5, §1, §2, §3, §4

“Y. kristensenii phytase YkAPPA variant YkAPPA-E230R, SEQ ID NO.11 (Yersinia kristensenii; E230R)” showed a Km [1] of 0.11 mM, a Vmax [1] of 4330 µmol/min/mg and a kcat [1] of 3310 s⁻¹. It also gave a kcat/Km [1] of 2.99e+07 M⁻¹ s⁻¹.

“Y. kristensenii phytase YkAPPA variant YkAPPA-E230S, SEQ ID NO.7 (Yersinia kristensenii; E230S)” gave a Km [2] of 0.09 mM, a Vmax [2] of 3800 µmol/min/mg and a kcat [2] of 2900 s⁻¹. For the same compound, the kcat/Km [2] was 2.93e+07 M⁻¹ s⁻¹.

With “Y. kristensenii phytase YkAPPA variant YkAPPA-E230T, SEQ ID NO.8 (Yersinia kristensenii; E230T)” the Km [3] was 0.08 mM, the Vmax [3] was 3250 µmol/min/mg and the kcat [3] was 2480 s⁻¹. It also gave a kcat/Km [3] of 2.98e+07 M⁻¹ s⁻¹.

“Y. kristensenii phytase YkAPPA variant YkAPPA-E230G, SEQ ID NO.5 (Yersinia kristensenii; E230G)” gave a Km [4] of 0.10 mM, a Vmax [4] of 7100 µmol/min/mg and a kcat [4] of 5430 s⁻¹. It also gave a kcat/Km [4] of 6.17e+07 M⁻¹ s⁻¹.

“Y. kristensenii phytase YkAPPA variant YkAPPA-E230A, SEQ ID NO.6 (Yersinia kristensenii; E230A)” was tested, and the Km [5] was 0.09 mM, the Vmax [5] was 4530 µmol/min/mg and the kcat [5] was 3470 s⁻¹. For the same compound, the kcat/Km [5] was 3.77e+07 M⁻¹ s⁻¹.

In the case of “Y. kristensenii phytase YkAPPA variant YkAPPA-E230D, SEQ ID NO.9 (Yersinia kristensenii; E230D)”, the Km [6] is reported as 0.09 mM, the Vmax [6] is reported as 3590 µmol/min/mg and the kcat [6] is reported as 2740 s⁻¹. For the same compound, the kcat/Km [6] was 2.91e+07 M⁻¹ s⁻¹.

For “Yersinia (Y.) kristensenii phytase YkAPPA, wild type, SEQ ID NO.1 (Yersinia kristensenii)”, the Km [7] was 0.09 mM, the Vmax [7] was 3550 µmol/min/mg and the kcat [7] was 2720 s⁻¹. It also gave a kcat/Km [7] of 2.94e+07 M⁻¹ s⁻¹.

Compound “Y. kristensenii phytase YkAPPA variant YkAPPA-E230P, SEQ ID NO.10 (Yersinia kristensenii; E230P)” has a Km [8] of 0.08 mM, a Vmax [8] of 3180 µmol/min/mg and a kcat [8] of 2430 s⁻¹. The kcat/Km [8] was 2.98e+07 M⁻¹ s⁻¹.

“Y. kristensenii phytase YkAPPA variant YkAPPA-L162G, SEQ ID NO.3 (Yersinia kristensenii; L162G)” showed a Km [9] of 0.09 mM, a Vmax [9] of 6320 µmol/min/mg and a kcat [9] of 4840 s⁻¹. It also gave a kcat/Km [9] of 4.61e+07 M⁻¹ s⁻¹.

`O=P(O)(O)O[C@H]1[C@H](OP(=O)(O)O)[C@@H](OP(=O)(O)O)[C@H](OP(=O)(O)O)[C@@H](OP(=O)(O)O)[C@H]1OP(=O)(O)O` [sodium phytate] was tested, and the “Reaction rate Vmax relative to the wild phytase” value [10] was 1.6 to 1.8 times, the “catalytic efficiency relative to the wild phytase” value [10] was 2.1 times and the “conversion rate Kcat relative to the wild phytase” value [10] was 1.6 to 1.8 times. The “Reaction rate Vmax relative to the wild phytase” value [11] was 1.3 times, the “catalytic efficiency relative to the wild phytase” value [11] was 2.1 times and the “conversion rate Kcat relative to the wild phytase” value [11] was 1.3 times. For the same compound, the “Reaction rate Vmax relative to the wild phytase” value [12] was 1.9 times, the “catalytic efficiency Kcat/km relative to the wild phytase” value [12] was 2.1 times and the “conversion rate Kcat relative to the wild phytase” value [12] was 1.9 times.
